We go through six molecules from US20240100162A1 (published 2024).

This assay deals with T1, MAGE-B2 peptide on HLA-A*02:01 (human).
T1 peptide: GVYDGEEHSV
Description: multimer staining.

B1: TCR11 (TCR, V domains shown)
Valpha: GEDVEQSLFLSVREGDSSVINCTYTDSSSTYLYWYKQEPGAGLQLLTYIFSNMDMKQDQRLTVLLNKKDKHLSLRIADTQTGDSAIYFCAEKSITSYDKVIFGPGTSLSVIP
Vbeta: DVKVTQSSRYLVKRTGEKVFLECVQDMDHENMFWYRQDPGLGLRLIYFSYDVKMKEKGDIPEGYSVSREKKERFSLILESASTNQTSMYLCASTRRGTYGYTFGSGTRLTVV
As for B1, the binding result was “recognises”.

B2: TCR5 (TCR, V domains shown)
Valpha: KNEVEQSPQNLTAQEGEFITINCSYSVGISALHWLQQHPGGGIVSLFMLSSGKKKHGRLIATINIQEKHSSLHITASHPRDSAVYICAPGGNQFYFGTGTSLTVIP
Vbeta: DAGITQSPRYKITETGRQVTLMCHQTWSHSYMFWYRQDLGHGLRLIYYSAAADITDKGEVPDGYVVSRSKTENFPLTLESATRSQTSVYFCASSGSNQPQHFGDGTRLSIL
As to B2, the binding result is on record as “recognises”.

B3: TCR8 (TCR, V domains shown)
Valpha: AQKITQTQPGMFVQEKEAVTLDCTYDTSDQSYGLFWYKQPSSGEMIFLIYQGSYDEQNATEGRYSLNFQKARKSANLVISASQLGDSAMYFCAMRGPTSYGKLTFGQGTILTVHP
Vbeta: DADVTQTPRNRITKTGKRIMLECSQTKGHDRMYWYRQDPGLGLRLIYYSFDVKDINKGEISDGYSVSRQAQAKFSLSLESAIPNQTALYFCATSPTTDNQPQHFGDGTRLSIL
Consider B3, for which the binding result is “recognises”.

B4: TCR6 (TCR, V domains shown)
Valpha: AQTVTQSQPEMSVQEAETVTLSCTYDTSENNYYLFWYKQPPSRQMILVIRQEAYKQQNATENRFSVNFQKAAKSFSLKISDSQLGDTAMYFCAFFNAGKSTFGDGTTLTVKP
Vbeta: EAGVAQSPRYKIIEKRQSVAFWCNPISGHATLYWYQQILGQGPKLLIQFQNNGVVDDSQLPKDRFSAERLKGVDSTLKIQPAKLEDSAVYLCASTVGGGPYGYTFGSGTRLTVV
B4: the binding result is given as “recognises”.

B5: TCR7 (TCR, V domains shown)
Valpha: GQNIDQPTEMTATEGAIVQINCTYQTSGFNGLFWYQQHAGEAPTFLSYNVLDGLEEKGRFSSFLSRSKGYSYLLLKELQMKDSASYLCAVRRLGGYQKVTFGTGTKLQVIP
Vbeta: GAGVSQSPSNKVTEKGKDVELRCDPISGHTALYWYRQRLGQGLEFLIYFQGNSAPDKSGLPSDRFSAERTGESVSTLTIQRTQQEDSAVYLCASSLVTGSSYNEQFFGPGTRLTVL
Turning to B5, the binding result was “recognises”.

B6: TCR10 (TCR, V domains shown)
Valpha: AQSVAQPEDQVNVAEGNPLTVKCTYSVSGNPYLFWYVQYPNRGLQFLLKYITGDNLVKGSYGFEAEFNKSQTSFHLKKPSALVSDSALYFCAVRDNARLMFGDGTQLVVKP
Vbeta: SAVISQKPSRDICQRGTSLTIQCQVDSQVTMMFWYRQQPGQSLTLIATANQGSEATYESGFVIDKFPISRPNLTFSTLTVSNMSPEDSSIYLCSVGPSGHTGYTFGSGTRLTVV
Turning to B6, the binding result is “recognises”.
